Laboratory results: paper PMC5037138, “A Novel Class of Plant Type III Polyketide Synthase Involved in Orsellinic Acid Biosynthesis from Rhododendron dauricum” (Frontiers in Plant Science, 2016)

B1: CHS (R. dauricum chalcone synthase) (Rhododendron dauricum) (protein)
chain: MVTVEDVRKAQRAEGPATVMAIGTATPPNCVDQSTYPDFYFRITNSEHKAELKEKFQRMCDKSMIKKRYMYLTEEILKENPSVCEYMAPSLDARQDMVVVEVPKLGKEAATKAIKEWGQPKSKITHLVFCTTSGVDMPGADYQLTKLLGLRPSVKRLMMYQQGCFAGGTVLRLAKDLAENNKGARVLVVCSEITAVTFRGPSDTHLDSLVGQALFGDGAAAIIVGADPVPEVEKPLFELVSAAQTILPDSDGAIDGHLREVGLTFHLLKDVPGLISKNIEKALTEAFQPLGISDWNSIFWIAHPGGPAILDQVELKLSLKPEKLRATRHVLSEYGNMSSACVLFILDEMRRKSAEEGLKTTGEGLEWGVLFGFGPGLTVETVVLHSLCT
notes: full length, 389 residues (42,599 Da), N-terminal His6 tag kept (pQE80L), E. coli M15; ~45 kDa subunit; homodimer ~94 kDa
B2: ORS (orcinol synthase) (Rhododendron dauricum) (protein)
chain: MALVNHRENVKGRAQILAIGTANPKNCFRQVDYPDYYFRVTKSDHLIDLKAKFKRMCEKSMIEKRYMHVNEEILEQNPSMNHGGEKMVSSLDVRLDMEIMEIPKLAAEAATKAMDEWGQPKSRITHLVFHSTLGTVMPGVDYELIKLLGLNPSVKRFMLYHLGCYGGGTVLRLAKDLAENNPGSRVLVLCCEMMPSGFHGPPSLQHAHLDILTGHAIFGDGAGAVIVGCVDPSGGTNGVVERGVRRYEQPLFEIHSAYQTVLPDSKDAVGGRLREAGLIYYLSKRLSNDVSGKIDECCLAEAFSAAIKDNFEDWNSLFWIVHPAGRPILDKLDAKLGLNKEKLRASRNVLRDYGNMWSSSVLFVLDEMRKGSIAQRKTTTGEGFEWGVLLGFGPGVTVETVVLRSVPTAKLK
notes: full length, 412 residues (45,707 Da), N-terminal His6 tag kept (pQE80L), E. coli M15; ~48 kDa subunit; homodimer ~101 kDa

What was measured:
Assay in all cases: HPLC product quantification, Hanes-Woolf
Assay type in all cases: biochemical, Rhododendron dauricum
[1] = substrate: CC(C)(COP(=O)(O)OP(=O)(O)OC[C@H]1O[C@@H](n2cnc3c(N)ncnc32)[C@H](O)[C@@H]1OP(=O)(O)O)[C@@H](O)C(=O)NCCC(=O)NCCSC(=O)/C=C/c1ccc(O)cc1; conditions: naringenin formation, 200 uM malonyl-CoA, pH 7.0, 30 C
[2] = substrate: CC(=O)SCCNC(=O)CCNC(=O)[C@H](O)C(C)(C)COP(=O)(O)OP(=O)(O)OC[C@H]1O[C@@H](n2cnc3c(N)ncnc32)[C@H](O)[C@@H]1OP(=O)(O)O; conditions: orcinol formation (major product), 200 uM malonyl-CoA, 100 mM potassium phosphate pH 7.0, 30 C, no OAC
Excerpt: (§1) HPLC product quantification, Hanes-Woolf on ORS (orcinol synthase)

[3] = substrate: CCCC(=O)SCCNC(=O)CCNC(=O)[C@H](O)C(C)(C)COP(=O)(O)OP(=O)(O)OC[C@H]1O[C@@H](n2cnc3c(N)ncnc32)[C@H](O)[C@@H]1OP(=O)(O)O; conditions: 4-hydroxy-6-propyl-2-pyrone formation, 200 uM malonyl-CoA, pH 7.0, 30 C
Excerpt: as §1

[4] = substrate: CCCCCC(=O)SCCNC(=O)CCNC(=O)[C@H](O)C(C)(C)COP(=O)(O)OP(=O)(O)OC[C@H]1O[C@@H](n2cnc3c(N)ncnc32)[C@H](O)[C@@H]1OP(=O)(O)O; conditions: 4-hydroxy-6-pentyl-2-pyrone formation, 200 uM malonyl-CoA, pH 7.0, 30 C
Excerpt: as §1

Protein	Km [1]	kcat [1]	Km [2]	kcat [2]	Km [3]	kcat [3]	Km [4]	kcat [4]
B1	8.15 µM	0.0089 s⁻¹	–	–	–	–	–	–
B2	–	–	9.98 µM	0.0243 s⁻¹	17.1 µM	0.00675 s⁻¹	26.4 µM	0.00482 s⁻¹
